B1: Rpn5 (natural protein, S. cerevisiae, UniProt Q12250 1-445, looked up)
chain: MSRDAPIKADKDYSQILKEEFPKIDSLAQNDCNSALDQLLVLEKKTRQASDLASSKEVLAKIVDLLASRNKWDDLNEQLTLLSKKHGQLKLSIQYMIQKVMEYLKSSKSLDLNTRISVIETIRVVTENKIFVEVERARVTKDLVEIKKEEGKIDEAADILCELQVETYGSMEMSEKIQFILEQMELSILKGDYSQATVLSRKILKKTFKNPKYESLKLEYYNLLVKISLHKREYLEVAQYLQEIYQTDAIKSDEAKWKPVLSHIVYFLVLSPYGNLQNDLIHKIQNDNNLKKLESQESLVKLFTTNELMRWPIVQKTYEPVLNEDDLAFGGEANKHHWEDLQKRVIEHNLRVISEYYSRITLLRLNELLDLTESQTETYISDLVNQGIIYAKVNRPAKIVNFEKPKNSSQLLNEWSHNVDELLEHIETIGHLITKEEIMHGLQAK
notes: Rpn5, subunit of the 19S proteasome lid, S. cerevisiae; source: endogenous, S. cerevisiae strain RJD2909; in lysate, then co-purified with Rpn11^H12 as the 19S lid (Ni-NTA, Sephacryl S-400 gel filtration)
B2: Rpn11^H12 (natural protein, S. cerevisiae, UniProt P43588 1-306, looked up)
chain: MERLQRLMMNSKVGSADTGRDDTKETVYISSIALLKMLKHGRAGVPMEVMGLMLGEFVDDYTVNVVDVFAMPQSGTGVSVEAVDDVFQAKMMDMLKQTGRDQMVVGWYHSHPGFGCWLSSVDVNTQKSFEQLNSRAVAVVVDPIQSVKGKVVIDAFRLIDTGALINNLEPRQTTSNTGLLNKANIQALIHGLNRHYYSLNIDYHKTAKETKMLMNLHKEQWQSGLKMYDYEEKEESNLAATKSMVKIAEQYSKRIEEEKELTEEELKTRYVGRQDPKKHLSETADETLENNIVSVLTAGVNSVAIK
notes: Rpn11, subunit of the 19S proteasome lid, S. cerevisiae; tagging cassette of plasmid pT2H12 integrated directly before the stop codon of RPN11; also called modified Rpn11; source: S. cerevisiae strain RJD2909 (tag integrated at the chromosomal RPN11 locus); in lysate, then purified as the 19S lid (Ni-NTA, Sephacryl S-400 gel filtration); not shown: His12, C-terminal, kept
B4: Rpn8 (natural protein, S. cerevisiae, UniProt Q08723 1-338, looked up)
chain: MSLQHEKVTIAPLVLLSALDHYERTQTKENKRCVGVILGDANSSTIRVTNSFALPFEEDEKNSDVWFLDHNYIENMNEMCKKINAKEKLIGWYHSGPKLRASDLKINELFKKYTQNNPLLLIVDVKQQGVGLPTDAYVAIEQVKDDGTSTEKTFLHLPCTIEAEEAEEIGVEHLLRDVRDQAAGGLSIRLTNQLKSLKGLQSKLKDVVEYLDKVINKELPINHTILGKLQDVFNLLPNLGTPDDDEIDVENHDRINISNNLQKALTVKTNDELMVIYISNLVRSIIAFDDLIENKIQNKKIQEQRVKDKQSKVSDDSESESGDKEATAPLIQRKNKKN
notes: Rpn8, subunit of the 19S proteasome lid, S. cerevisiae; source: endogenous, S. cerevisiae strain RJD2909; in lysate, then co-purified with Rpn11^H12 as the 19S lid (Ni-NTA, Sephacryl S-400 gel filtration)

What was measured:
Rpn3 [1] = target: T1, Rpn3 (S. cerevisiae, UniProt P40016 17-523); assay: cross-linking; purified lid 4.8 uM, BS3 at a ratio of 1:50, 2 h on ice, 200 mM NaCl, 50 mM HEPES pH 7.5; bands A-F of a Bis-Tris 4-12% denaturing gel digested with trypsin and identified by MALDI-TOF/TOF MS and MS/MS; settings: both partners purified
T1 construct: Rpn3, subunit of the 19S proteasome lid, S. cerevisiae; from the measured mass the first 16 residues are truncated; source: endogenous, S. cerevisiae strain RJD2909; in lysate, then co-purified with Rpn11^H12 as the 19S lid (Ni-NTA, Sephacryl S-400 gel filtration)
T1 sequence (looked up): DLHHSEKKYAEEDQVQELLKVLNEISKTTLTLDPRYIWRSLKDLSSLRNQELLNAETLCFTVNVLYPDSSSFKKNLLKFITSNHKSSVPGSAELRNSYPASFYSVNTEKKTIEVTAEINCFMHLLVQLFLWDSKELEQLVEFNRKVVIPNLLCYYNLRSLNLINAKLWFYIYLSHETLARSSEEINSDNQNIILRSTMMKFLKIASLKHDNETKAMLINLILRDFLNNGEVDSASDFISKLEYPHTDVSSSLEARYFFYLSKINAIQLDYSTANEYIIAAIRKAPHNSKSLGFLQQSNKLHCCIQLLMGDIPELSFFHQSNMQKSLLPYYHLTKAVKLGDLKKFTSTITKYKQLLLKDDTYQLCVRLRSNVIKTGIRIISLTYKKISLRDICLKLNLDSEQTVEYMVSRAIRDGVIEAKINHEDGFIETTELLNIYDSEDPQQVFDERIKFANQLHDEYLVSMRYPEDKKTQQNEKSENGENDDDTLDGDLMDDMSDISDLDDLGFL

Rpn7 [2] = target: T2, Rpn7 (S. cerevisiae, UniProt Q06103 1-429); assay: affinity purification with mass spectrometry; Rpn11^H12 held on Ni-NTA from yeast lysate, gel filtration; subunits identified by MALDI-TOF/TOF peptide mapping and database search; settings: partners not purified
T2 construct: Rpn7, subunit of the 19S proteasome lid, S. cerevisiae; source: endogenous, S. cerevisiae strain RJD2909; in lysate, then co-purified with Rpn11^H12 as the 19S lid (Ni-NTA, Sephacryl S-400 gel filtration)
T2 sequence (looked up): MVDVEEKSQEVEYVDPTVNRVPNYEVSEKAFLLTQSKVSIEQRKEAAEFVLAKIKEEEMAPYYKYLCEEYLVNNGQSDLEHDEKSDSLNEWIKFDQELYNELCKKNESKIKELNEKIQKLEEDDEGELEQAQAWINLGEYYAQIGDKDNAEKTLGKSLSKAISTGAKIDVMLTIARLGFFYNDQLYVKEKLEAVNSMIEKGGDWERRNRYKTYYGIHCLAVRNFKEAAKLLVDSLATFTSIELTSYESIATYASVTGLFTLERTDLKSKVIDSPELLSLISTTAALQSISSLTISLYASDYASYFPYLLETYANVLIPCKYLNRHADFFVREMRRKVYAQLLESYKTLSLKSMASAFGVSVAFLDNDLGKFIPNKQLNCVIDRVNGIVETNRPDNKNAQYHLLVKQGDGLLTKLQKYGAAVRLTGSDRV

Rpn8 = target: B4; assay: as above; settings: partners not purified
Rpn3 [3] = target: T1, Rpn3; assay: native MS; intact endogenous 19S lid purified through Rpn11^H12, buffer exchanged into 1 M ammonium acetate, nano-electrospray on a high-mass Q-TOF; MS/MS of the 47+ charge state at 100 and 120 V; settings: both partners purified
Rpn5 [4] = target: B1; assay: as above; settings: both partners purified
Rpn11^H12 = target: B2; assay: affinity purification with mass spectrometry; Rpn11^H12 held on Ni-NTA from yeast lysate, gel filtration; subunits identified by MALDI-TOF/TOF peptide mapping and database search; settings: partners not purified
Rpn7 [5] = target: T2, Rpn7; assay: cross-linking; purified lid 4.8 uM, BS3 at a ratio of 1:50, 2 h on ice, 200 mM NaCl, 50 mM HEPES pH 7.5; bands A-F of a Bis-Tris 4-12% denaturing gel digested with trypsin and identified by MALDI-TOF/TOF MS and MS/MS; settings: both partners purified
Rpn9 = target: T3, Rpn9 (S. cerevisiae, UniProt Q04062 1-393); assay: native MS; 185-kDa subcomplex present in the solution of the purified lid, 1 M ammonium acetate; 34+ charge state isolated, MS/MS with argon at 130 V; settings: both partners purified
T3 construct: Rpn9, subunit of the 19S proteasome lid, S. cerevisiae; source: endogenous, S. cerevisiae strain RJD2909; in lysate, then co-purified with Rpn11^H12 as the 19S lid (Ni-NTA, Sephacryl S-400 gel filtration)
T3 sequence (looked up): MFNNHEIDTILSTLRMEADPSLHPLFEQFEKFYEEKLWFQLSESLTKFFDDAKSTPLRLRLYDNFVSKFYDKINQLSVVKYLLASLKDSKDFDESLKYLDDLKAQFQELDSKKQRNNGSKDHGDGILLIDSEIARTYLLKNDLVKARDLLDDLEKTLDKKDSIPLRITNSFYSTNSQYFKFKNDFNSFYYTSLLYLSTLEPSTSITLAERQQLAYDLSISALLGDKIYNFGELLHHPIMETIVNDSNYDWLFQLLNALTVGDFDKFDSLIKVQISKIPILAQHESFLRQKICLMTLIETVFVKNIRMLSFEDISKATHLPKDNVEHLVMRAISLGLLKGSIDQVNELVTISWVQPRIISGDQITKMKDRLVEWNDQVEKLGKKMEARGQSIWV

Rpn6 = target: T4, Rpn6 (S. cerevisiae, UniProt Q12377 1-434); assay: as above; settings: both partners purified
T4 construct: Rpn6, subunit of the 19S proteasome lid, S. cerevisiae; Present in substoichiometric amounts: a part of the purified lid complexes lacks Rpn6; also called Rnp6; source: endogenous, S. cerevisiae strain RJD2909; in lysate, then co-purified with Rpn11^H12 as the 19S lid (Ni-NTA, Sephacryl S-400 gel filtration)
T4 sequence (looked up): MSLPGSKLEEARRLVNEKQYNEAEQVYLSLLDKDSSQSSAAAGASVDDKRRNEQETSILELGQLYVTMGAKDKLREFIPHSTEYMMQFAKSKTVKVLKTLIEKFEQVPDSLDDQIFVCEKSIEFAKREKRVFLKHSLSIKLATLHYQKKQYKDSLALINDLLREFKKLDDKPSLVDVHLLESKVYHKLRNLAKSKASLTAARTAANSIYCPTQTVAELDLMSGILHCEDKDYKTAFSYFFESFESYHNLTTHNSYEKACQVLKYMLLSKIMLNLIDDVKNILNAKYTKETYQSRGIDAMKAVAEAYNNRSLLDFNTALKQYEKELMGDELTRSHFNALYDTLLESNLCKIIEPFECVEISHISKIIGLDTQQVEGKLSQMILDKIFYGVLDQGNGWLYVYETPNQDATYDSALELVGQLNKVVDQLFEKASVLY

Rpn5 [6] = target: B1; assay: cross-linking; purified lid 4.8 uM, BS3 at a ratio of 1:50, 2 h on ice, 200 mM NaCl, 50 mM HEPES pH 7.5; bands A-F of a Bis-Tris 4-12% denaturing gel digested with trypsin and identified by MALDI-TOF/TOF MS and MS/MS; settings: both partners purified

## B1
Rpn3 [1]
  binding result: binds

## B2
Rpn7 [2]
  binding result: binds
Rpn8
  binding result: binds
Rpn3 [3]
  binding result: binds
Rpn5 [4]
  binding result: binds

B3: Sem1 (natural protein, S. cerevisiae, UniProt O94742 2-89, looked up)
chain: STDVAAAQAQSKIDLTKKKNEEINKKSLEEDDEFEDFPIDTWANGETIKSNAVTQTNIWEENWDDVEVDDDFTNELKAELDRYKRENQ
modifications: N-terminal amino group acetylated (initiator methionine removed)
notes: Sem1, subunit of the 19S proteasome lid, S. cerevisiae (10 kDa); the initiator methionine is removed; source: endogenous, S. cerevisiae strain RJD2909; in lysate, then co-purified with Rpn11^H12 as the 19S lid (Ni-NTA, Sephacryl S-400 gel filtration)
Rpn11^H12
  binding result: binds
Rpn7 [5]
  binding result: binds
Rpn3 [1]
  binding result: binds

## B4
Rpn9
  binding result: binds
Rpn6
  binding result: binds
Rpn5 [6]
  binding result: binds

Reference: publication PMC1523230, “Structural Organization of the 19S Proteasome Lid: Insights from MS of Intact Complexes” (PLoS Biology, 2006)
